{
  "source": "patent US9908923",
  "about": "(MEDICAL COLLEGE OF WISCONSIN, dated 2018)",
  "key": {"[1]": {"target": "T1, CXCL121 (constitutively monomeric CXCL12 variant, L55C/I58C) (Felis catus (Cat) (Felis silvestris …, UniProt O62657 22-89, engineered disulfide between Cys55 and Cys58))", "T1 construct": "also called CXCL12 locked monomer; LM", "T1 sequence (O62657 22-89 L76C/I79C limits assumed)": "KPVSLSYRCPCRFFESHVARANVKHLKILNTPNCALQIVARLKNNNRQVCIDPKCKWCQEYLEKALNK", "test": "NMR 1H-15N HSQC titration of peptide into 15N-labelled chemokine, chemical shift perturbations fitted to a quadratic binding equation, 298 K", "description": "(§1) Each peptide was acetylated and amidated to create uncharged N- and C-termini, respectively. […] For each titration, the chemical shift change of every residue was used to identify the binding site and calculate the interaction affinity.\n(§2) Total peptide additions differed for individual peptide titrations but ranged from 0-160 equivalencies. Spectra were processed using in-house scripts and chemical shift tracking was performed using CARA software. Combined ^1H/^15N chemical shift perturbations were calculated as $((5\\ \\Delta\\delta_H)^2+(\\Delta\\deltaNH)^2)^{0.5}$, where δ_H and $\\deltaNH$ are the amide proton and nitrogen chemical shifts, respectively. Equilibrium dissociation constants (K_d) were determined by non-linear fitting of the combined ^1H/^15N_H chemical shift perturbations as a function of peptide concentration to a single-site quadratic equation. For a given interaction, residues with the largest chemical shift perturbations were fitted individually. The resulting K_d values and their respective fitting errors were then averaged to produce the reported affinity and standard deviation for that interaction."}, "[2]": {"target": "T2, CXCL122 (constitutively dimeric CXCL12 variant, L36C/A65C) (Homo sapiens (Human), UniProt P48061 22-89, disulfide-locked dimer through the engineered cysteines)", "T2 construct": "it is described as a variant of CXCL12 containing L36C/A65C mutations; also called CXCL12 locked dimer; LD", "T2 sequence (P48061 22-89 L57C/A86C limits assumed)": "as the sequence (O62657 22-89 L76C/I79C limits assumed) above, with L36C, C55L, C58I, A65C counted along it", "test": "ΔG = -RT ln Kd at 298 K from the NMR titration", "description": "as §1, §2"}, "[3]": {"target": "T3, CXCL12WT (wild type CXCL12) (Homo sapiens (Human), UniProt P48061 22-89)", "T3 construct": "Recombinant, expressed and purified as previously described; [U-15N]-labelled in the NMR titrations; In monomer-dimer equilibrium; also called stromal cell-derived factor-1; SDF-1", "T3 sequence (P48061 22-89 limits assumed)": "as the sequence (O62657 22-89 L76C/I79C limits assumed) above, with C55L, C58I counted along it", "test": "ΔG = -RT ln Kd at 298 K from the NMR titration", "description": "as §1, §2"}, "[4]": {"target": "T1, CXCL121 (constitutively monomeric …)", "test": "ΔG = -RT ln Kd at 298 K from the NMR titration", "description": "as §1, §2"}, "[5]": {"target": "T3, CXCL12WT (wild type CXCL12)", "test": "NMR 1H-15N HSQC titration of peptide into 15N-labelled chemokine, chemical shift perturbations fitted to a quadratic binding equation, 298 K", "description": "as §1, §2"}, "[6]": {"target": "T1, CXCL121 (constitutively monomeric …)", "test": "NMR titrations (Table 1)", "description": "as §1, §2"}, "[7]": {"target": "T2, CXCL122 (constitutively dimeric CXCL12 …)", "test": "ΔG = -RT ln Kd at 298 K from the NMR titration; non-specific binding to sY21 position", "description": "as §1, §2"}, "[8]": {"target": "T3, CXCL12WT (wild type CXCL12)", "test": "NMR titrations", "description": "as §1, §2"}, "[9]": {"target": "T3, CXCL12WT (wild type CXCL12)", "test": "125I-CXCL12 radioligand displacement on CXCR4 II/AA (I4A/I6A); displaced tracer 125I-CXCL12"}, "[10]": {"target": "T2, CXCL122 (constitutively dimeric CXCL12 …)", "test": "NMR 1H-15N HSQC titration of peptide into 15N-labelled chemokine, chemical shift perturbations fitted to a quadratic binding equation, 298 K", "description": "as §1, §2"}, "[11]": {"target": "T2, CXCL122 (constitutively dimeric CXCL12 …)", "test": "NMR titrations", "description": "as §1, §2"}},
  "note": "Non-standard residues stand in square brackets, D forms with d. sY = N[C@@H](Cc1ccc(OS(=O)(=O)O)cc1)C(=O)O",
  "data": [
    {"binder": "Ac-SDNYTEE-NH2 (Synthetic CXCR4 heptapeptide, residues 9-15; also called unsulfated Tyr12 peptide)", "note": "[9SDNYTEE15 (Tyr12 peptide)]", "values": [
      {"measurement": "Kd", "setting": "[1]", "value": 2.7, "unit": "mM"},
      {"measurement": "ΔG", "setting": "[2]", "value": -4.74, "unit": "kcal/mol"},
      {"measurement": "ΔG", "setting": "[3]", "value": -3.65, "unit": "kcal/mol"},
      {"measurement": "ΔG", "setting": "[4]", "value": -3.5, "unit": "kcal/mol"}
    ]},
    {"binder": "Ac-ISIYTSD-NH2 (Synthetic CXCR4 heptapeptide, residues 4-10; also called CXCR4 Ile4-Asp10 heptapeptide)", "note": "[4ISIYTSD10 (unsulfated Tyr7 peptide)]", "values": [
      {"measurement": "Kd", "setting": "[5]", "value": 1.9, "unit": "mM"},
      {"measurement": "Kd", "setting": "[1]", "value": 1.1, "unit": "mM"},
      {"measurement": "ΔG", "setting": "[3]", "value": -3.71, "unit": "kcal/mol"},
      {"measurement": "ΔG", "setting": "[4]", "value": -4.03, "unit": "kcal/mol"},
      {"measurement": "fold stronger binding than the sTyr7 sulfopeptide", "setting": "[6]", "value": "~5", "unit": "fold"},
      {"measurement": "ΔG", "setting": "[7]", "value": -4.6, "unit": "kcal/mol"},
      {"measurement": "fold higher affinity than the sTyr7 sulfopeptide", "setting": "[8]", "value": 2, "unit": "fold"}
    ]},
    {"binder": "Ac-SDN[sY]TEE-NH2 (SMILES CC(=O)N[C@@H](CO)C(=O)N[C@@H](CC(=O)O)C(=O)N[C@@H](CC(N)=O)C(=O)N[C@@H](Cc1ccc(OS(=O)(=O)O)cc1)C(=O)N[C@H](C(=O)N[C@@H](CCC(=O)O)C(=O)N[C@@H](CCC(=O)O)C(N)=O)[C@@H](C)O, Synthetic CXCR4 heptapeptide, residues 9-15)", "note": "[9SDNsYTEE15 (sTyr12 sulfopeptide)]", "values": [
      {"measurement": "Kd", "setting": "[1]", "value": 1.8, "unit": "mM"},
      {"measurement": "ΔG", "setting": "[3]", "value": -4.09, "unit": "kcal/mol"},
      {"measurement": "ΔG", "setting": "[4]", "value": -3.74, "unit": "kcal/mol"},
      {"measurement": "ΔG", "setting": "[7]", "value": -4.87, "unit": "kcal/mol"}
    ]},
    {"binder": "FLAG-hCXCR4 Ile4Ala/Ile6Ala (receptor, human, UniProt P61073 1-352, looked up, whole, on cells; also called CXCR4 (I4A/I6A); not shown: FLAG tag) MEGASAYTSDNYTEEMGSGDYDSMKEPCFREENANFNKIFLPTIYSIIFLTGIVGNGLVILVMGYQKKLRSMTDKYRLHLSVADLLFVITLPFWAVDAVANWYFGNFLCKAVHVIYTVNLYSSVLILAFISLDRYLAIVHATNSQRPRKLLAEKVVYVGVWIPALLLTIPDFIFANVSEADDRYICDRFYPNDLWVVVFQFQHIMVGLILPGIVILSCYCIIISKLSHSKGHQKRKALKTTVILILAFFACWLPYYIGISIDSFILLEIIKQGCEFENTVHKWISITEALAFFHCCLNPILYAFLGAKFKTSAQHALTSVSRGSSLKILSKGKRGGHSSVSTESESSSFHSS", "values": [
      {"measurement": "binding result", "setting": "[9]", "value": "binds"}
    ]},
    {"binder": "Ac-ISI[sY]TSD-NH2 (SMILES CC[C@H](C)[C@H](NC(C)=O)C(=O)N[C@@H](CO)C(=O)N[C@H](C(=O)N[C@@H](Cc1ccc(OS(=O)(=O)O)cc1)C(=O)N[C@H](C(=O)N[C@@H](CO)C(=O)N[C@@H](CC(=O)O)C(N)=O)[C@@H](C)O)[C@@H](C)CC, Synthetic CXCR4 heptapeptide, residues 4-10)", "note": "[4ISIsYTSD10 (sTyr7 sulfopeptide)]", "values": [
      {"measurement": "Kd", "setting": "[5]", "value": 4.3, "unit": "mM"},
      {"measurement": "Kd", "setting": "[1]", "value": 6.1, "unit": "mM"},
      {"measurement": "ΔG", "setting": "[3]", "value": -3.22, "unit": "kcal/mol"},
      {"measurement": "ΔG", "setting": "[4]", "value": -3.02, "unit": "kcal/mol"},
      {"measurement": "ΔG", "setting": "[7]", "value": -4.65, "unit": "kcal/mol"}
    ]},
    {"binder": "Ac-SGDYDSM-NH2 (Synthetic CXCR4 heptapeptide, residues 18-24; also called unsulfated Tyr21 peptide)", "note": "[18SGDYDSM24 (Tyr21 peptide)]", "values": [
      {"measurement": "Kd", "setting": "[10]", "value": 0.831, "unit": "mM"},
      {"measurement": "Kd", "setting": "[5]", "value": 2.7, "unit": "mM"},
      {"measurement": "Kd", "setting": "[1]", "value": 1.5, "unit": "mM"},
      {"measurement": "ΔG", "setting": "[2]", "value": -4.2, "unit": "kcal/mol"},
      {"measurement": "ΔG", "setting": "[3]", "value": -3.5, "unit": "kcal/mol"},
      {"measurement": "ΔG", "setting": "[4]", "value": -3.85, "unit": "kcal/mol"}
    ]},
    {"binder": "GMMEGISIYTSDNYTEEMGSGDYDSMKEPAFREENANFNK (range 1-38; Unsulfated recombinant peptide; also called CXCR4 N-terminal domain; CXCR1-38)", "note": "[CXCR41-38 (first 38 amino acids of CXCR4 preceded by a GlyMet dipeptide tag)]", "values": [
      {"measurement": "Kd", "setting": "[10]", "value": 0.0009, "unit": "mM"},
      {"measurement": "Kd", "setting": "[1]", "value": 0.0035, "unit": "mM"},
      {"measurement": "ΔG", "setting": "[2]", "value": -8.24, "unit": "kcal/mol"},
      {"measurement": "ΔG", "setting": "[4]", "value": -7.43, "unit": "kcal/mol"}
    ]},
    {"binder": "Ac-SGD[sY]DSM-NH2 (SMILES CSCC[C@H](NC(=O)[C@H](CO)NC(=O)[C@H](CC(=O)O)NC(=O)[C@H](Cc1ccc(OS(=O)(=O)O)cc1)NC(=O)[C@H](CC(=O)O)NC(=O)CNC(=O)[C@H](CO)NC(C)=O)C(N)=O, Synthetic CXCR4 heptapeptide, residues 18-24; also called sulfated Tyr21 peptide)", "note": "[18SGDsYDSM24 (sTyr21 sulfopeptide)]", "values": [
      {"measurement": "Kd", "setting": "[10]", "value": 0.211, "unit": "mM"},
      {"measurement": "Kd", "setting": "[5]", "value": 1.8, "unit": "mM"},
      {"measurement": "Kd", "setting": "[1]", "value": 1.6, "unit": "mM"},
      {"measurement": "ΔG", "setting": "[2]", "value": -5.01, "unit": "kcal/mol"},
      {"measurement": "ΔG", "setting": "[3]", "value": -3.74, "unit": "kcal/mol"},
      {"measurement": "ΔG", "setting": "[4]", "value": -3.81, "unit": "kcal/mol"},
      {"measurement": "fold stronger binding than the unsulfated variant", "setting": "[11]", "value": 4, "unit": "fold"},
      {"measurement": "fold stronger binding than to CXCL12WT or CXCL121", "setting": "[11]", "value": 20, "unit": "fold"}
    ]}
  ]
}
